Read-outs that look alike come from different tables or passages of the source.
Experiments:
[1] = molecular target: T1, 15 amino acid peptide for epitope mapping QEWRCVNDKTRTQRI (SEQ ID NO: 32) (human); test: peptide array on cellulose membrane, HRP-conjugated anti-mouse antibody, ECL
T1 peptide: QEWRCVNDKTRTQRI
Procedure: (§1) Briefly, 169 overlapping peptides of 15 amino acids were synthesized based on a human USAG-1 protein sequence (183 amino acid length) excluding a signal peptide by shifting the 15 amino acid sequence from the beginning by one amino acid to prepare a peptide library. The 169 kinds of peptides were bound onto a cellulose membrane to prepare a peptide array. […] After washing, an HRP-conjugated anti-mouse antibody (1/25000 dilution) was added as a secondary antibody, and ECL solution was used for color development.

[2] = molecular target: T2, 15 amino acid peptide for epitope mapping EWRCVNDKTRTQRIQ (SEQ ID NO: 33) (human); test: as above
T2 peptide: EWRCVNDKTRTQRIQ
Procedure: as §1

[3] = molecular target: T3, 15 amino acid peptide for epitope mapping WRCVNDKTRTQRIQL (SEQ ID NO: 34) (human); test: as above
T3 peptide: WRCVNDKTRTQRIQL
Procedure: as §1

[4] = molecular target: T4, 15 amino acid peptide for epitope mapping RCVNDKTRTQRIQLQ (SEQ ID NO: 35) (human); test: as above
T4 peptide: RCVNDKTRTQRIQLQ
Procedure: as §1

[5] = molecular target: T5, 15 amino acid peptide for epitope mapping CVNDKTRTQRIQLQC (SEQ ID NO: 36) (human); test: as above
T5 peptide: CVNDKTRTQRIQLQC
Procedure: as §1

[6] = molecular target: T6, 15 amino acid peptide for epitope mapping VNDKTRTQRIQLQCQ (SEQ ID NO: 37) (human); test: as above
T6 peptide: VNDKTRTQRIQLQCQ
Procedure: as §1

[7] = molecular target: T7, human FLAG-tagged USAG-1 transiently forcibly expressed in HEK293 cells (human, UniProt Q6X4U4 24-206); test: immunostaining of HEK293 cells transiently expressing human FLAG-tagged USAG-1
T7 construct: whole, on cells; Immunostaining of transfected cells; not shown: FLAG tag
T7 sequence (looked up): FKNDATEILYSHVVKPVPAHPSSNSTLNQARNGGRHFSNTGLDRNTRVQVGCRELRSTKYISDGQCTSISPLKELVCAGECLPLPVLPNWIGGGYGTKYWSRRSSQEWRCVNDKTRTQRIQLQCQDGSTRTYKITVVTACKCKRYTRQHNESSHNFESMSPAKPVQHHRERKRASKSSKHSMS

[8] = molecular target: T8, N-terminal PA-tagged mouse USAG-1 (WISE) recombinant protein (mouse, UniProt Q9CQN4 24-206); test: BLI (Octet), antibody immobilized on the biosensor, mouse USAG-1 at 10, 30, 100 nM, global fitting
T8 construct: The pull-downs used culture supernatant of Expi293F cells; also called PA-mUSAG-1 (WISE); purified full-length recombinant mouse USAG-1; not shown: PA tag at the N-terminal
T8 sequence (looked up): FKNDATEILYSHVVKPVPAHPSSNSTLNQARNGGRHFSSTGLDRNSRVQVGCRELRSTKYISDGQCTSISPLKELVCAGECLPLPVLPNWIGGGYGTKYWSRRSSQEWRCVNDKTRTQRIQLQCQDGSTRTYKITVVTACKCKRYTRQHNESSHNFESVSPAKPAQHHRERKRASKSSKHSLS
Procedure: For 8 out of the 9 antibodies grouped in Example 8, affinities (KD values) were determined by using the same Octet-based BLI method as in Example 8. […] The affinities were calculated by subjecting the obtained curves to global fitting with an analysis program attached to the Octet device.

human USAG-1 protein [9] = molecular target: T9, human USAG-1 protein (human, UniProt Q6X4U4 24-206); test: solid-phase ELISA of the hybridoma clone on the immunizing antigen (E. coli-derived human USAG-1, R & D systems), paragraph 134
T9 construct: mature
T9 sequence (looked up): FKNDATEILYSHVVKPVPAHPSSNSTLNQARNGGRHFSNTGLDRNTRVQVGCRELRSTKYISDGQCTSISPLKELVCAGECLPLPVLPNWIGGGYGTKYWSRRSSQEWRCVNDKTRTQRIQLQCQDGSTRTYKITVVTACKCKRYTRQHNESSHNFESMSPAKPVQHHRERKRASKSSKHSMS

[10] = molecular target: T8, N-terminal PA-tagged mouse USAG-1 …; test: cell-based or functional assay
human USAG-1 protein [11] = molecular target: T9, human USAG-1 protein; test: solid-phase ELISA of the hybridoma clone on the immunizing antigen (E. coli-derived human USAG-1, R & D systems), paragraph 134; remark: listed apart in the source

B1: mouse anti-USAG-1 neutralizing antibody A (E37) (antibody, mouse IgG1, kappa, V domains shown)
VH: QVQLQQSDAELVNPGASVKISCKVSGYTFTDHTIHWMKQRPEQGLEWIGYIYPGDGSTKYNEKFKGKATLTADKSSSTAYMQLNSLTSEDSAVYFCARTETYYGRIYYYAMDYWGQGTSVTVSS
VL: QIVLSQSPAILSASPGEKVTMTCRASSSVSYMYWYQQKPGSSPKPWIYATSNLASGVPIRFSGSGSGTSYSLTISRVEAEDAATYYCQQWSSNLTFGAGTKLELKR
- binding result [1]: binds
- binding result [2]: binds
- binding result [3]: binds
- binding result [4]: binds
- binding result [5]: binds
- binding result [6]: binds
- binding result [7]: binds
- Kd [8]: 2.43 nM
- binding result (human USAG-1 protein [9]): binds

B2: mouse anti-USAG-1 neutralizing antibody C (B14) (antibody, V domains shown)
VH: EVQLQQSGPELVKPGASVKISCKASGYSFTGYYMNWVKQSPEKSLEWIGEINPTTGGTTYNQKFKAKATLTVDKSSSTAYMQLKSLTSEDSAVYYCARLHYDYDGVGYAMDYWGQGTSVTVSS
VL: DIVMTQSHKFMSTSVGDRVSITCKASQDVSTAVAWYQQKPGQSPKLLIYSASYRYTGVPARFTGSGSGTDFTFTISSVQAEDLAVYYCQQHYSTPPTFGGGTKLEIKR
notes: Raised against baculovirus-derived rat USAG-1
- EC50 against the BMP signaling inhibition by USAG-1 (BMP ALP assay, C2C12 cells, BMP7) [10]: 0.298 µg/mL
- EC50 against the Wnt signaling inhibition by USAG-1 (WNT reporter assay, luciferase) [10]: 4.73 µg/mL
- Kd [8]: 4.21 nM

B3: mouse anti-USAG-1 neutralizing antibody E (B103) (antibody, mouse IgG1, kappa, V domains shown)
VH: DVQLQESGPGLVKPSQSLSLTCSVTGYSITSGYYWNWIRQFPGNKLEWMGCISYDGSNNYNPSLKNRISITRDTSKNQFFLKLNSVTTEDTATYYCARGGLLWGQGTTLTVSS
VL: DIQMTQSPSSLSASLGERVSLTCRASQEISGYLSWLQQKPDGNIKRLIYAASTLDSGVPKRFSGSRSGSDYSLTISRLESEDFADYYCLQYASYPWTFGGGTKLEIKR
notes: as for B2
- Kd [8]: 4.97 nM

B4: mouse anti-USAG-1 neutralizing antibody B (E57) (antibody, mouse IgG1, kappa, V domains shown)
VH: EVQLQQSGPELVKPGASVKISCKTSGYSFTGYYMSWVKQSPEKSLEWIGEINPTTGGSTYNQKFKAKATLTVDKSSSTAYMQLKSLTSEDSAVYYCAREGYYSGISYDAMDYWGQGTSVTVSS
VL: DIQMTQTTSSLSASLGDRVTISCRASQDISNYLSWYQQKPDGTVKLLIYYTSRLHSGVPSRFSGSGSGTDYSLTISNLEQEDIATYFCQQGNTLPRTFGGGTKLEIKR
- binding result [7]: binds
- Kd [8]: 2.44 nM
- binding result (human USAG-1 protein [11]): binds
